The Human Domainome abundance scans (Beltran et al. 2025)
± gives the uncertainty stated by the source.

B1: Intersectin-1, residues 1156 to 1213; numbered along this chain, Q15811 (parent)
chain: AVCQVIGMYDYTAQNDDELAFNKGQIINVLNKEDPDWWKGEVNGQVGLFPSNYVKLTT

Variants of: B1
Test: abundance fitness (aPCA) (normalised: wild type 0, dead -1); higher = more abundant; growth selection in yeast, the domain comes from the species named
Conditions: Homo sapiens

Q: For AVCQVIGMYDYTAQNDDELAFNKGQIINVLNKEDPDAWKGEVNGQVGLFPSNYVKLTT [W37A], which abundance fitness is on record?
A: -0.585 ± 0.11

Q: With AVCQVIGMYDYTAQNDDELAFNKGQIINVLNKEDPDCWKGEVNGQVGLFPSNYVKLTT [W37C] as the variant, how does the abundance fitness read?
A: -0.588 ± 0.18

Q: For AVCQVIGMYDYTAQNDDELAFNKGQIINVLNKEDPDDWKGEVNGQVGLFPSNYVKLTT [W37D], which abundance fitness is on record?
A: -0.637 ± 0.17

Q: For AVCQVIGMYDYTAQNDDELAFNKGQIINVLNKECPDWWKGEVNGQVGLFPSNYVKLTT [D34C], which abundance fitness is on record?
A: -0.553 ± 0.14

Q: With AVCQVIGMYDYTAQNDDELAFNKGQIINVLNKEEPDWWKGEVNGQVGLFPSNYVKLTT [D34E] as the variant, how does the abundance fitness read?
A: -0.376 ± 0.17

Q: For AVCQVIGMYDYTAQNDDELAFNKGQIINVLNKEGPDWWKGEVNGQVGLFPSNYVKLTT [D34G], which abundance fitness is on record?
A: -0.409 ± 0.1

Q: Which abundance fitness does the source give for AVCQVIGMYDYTAQNDDELAFNKGQIINVLNKEYPDWWKGEVNGQVGLFPSNYVKLTT [D34Y] here?
A: -0.94 ± 0.29

Q: Which abundance fitness does the source give for AVCQVIGMYDYTAQNDDELAFNKGQIINVLNKEWPDWWKGEVNGQVGLFPSNYVKLTT [D34W] here?
A: -0.894 ± 0.19

Q: With AVCQVIGMYDYTAQNDDELAFNKGQIINVLNKELPDWWKGEVNGQVGLFPSNYVKLTT [D34L] as the variant, how does the abundance fitness read?
A: -0.673 ± 0.14

Q: With AVCQVIGMYDYTAQNDDELAFNKGQIINVLNKERPDWWKGEVNGQVGLFPSNYVKLTT [D34R] as the variant, how does the abundance fitness read?
A: -0.116 ± 0.1

Q: Which abundance fitness does the source give for AVCQVIGMYDYTAQNDDELAFNKGQIINVLNKEIPDWWKGEVNGQVGLFPSNYVKLTT [D34I] here?
A: -0.974 ± 0.25

Q: With AVCQVIGMYDYTAQNDDELAFNKGQIINVLNKEHPDWWKGEVNGQVGLFPSNYVKLTT [D34H] as the variant, how does the abundance fitness read?
A: -0.158 ± 0.17

Q: Which abundance fitness does the source give for AVCQVIGMYDYTAQNDDELAFNKGQIINVLNKEAPDWWKGEVNGQVGLFPSNYVKLTT [D34A] here?
A: -0.385 ± 0.12

Q: Which abundance fitness does the source give for AVCQVIGMYDYTAQNDDELAFNKGQIINVLNKEVPDWWKGEVNGQVGLFPSNYVKLTT [D34V] here?
A: -0.691 ± 0.12

Q: For AVCQVIGMYDYTAQNDDELAFNKGQIINVLNKENPDWWKGEVNGQVGLFPSNYVKLTT [D34N], which abundance fitness is on record?
A: -0.348 ± 0.17

Q: With AVCQVIGMYDYTAQNDDELAFNKGQIINVLNKEKPDWWKGEVNGQVGLFPSNYVKLTT [D34K] as the variant, how does the abundance fitness read?
A: -0.176 ± 0.2

Q: Which abundance fitness does the source give for AVCQVIGMYDYTAQNDDELAFNKGQIINVLNKEQPDWWKGEVNGQVGLFPSNYVKLTT [D34Q] here?
A: -0.489 ± 0.19

Q: For AVCQVIGMYDYTAQNDDELAFNKGQIINVLNKEPPDWWKGEVNGQVGLFPSNYVKLTT [D34P], which abundance fitness is on record?
A: -0.543 ± 0.24

Q: Which abundance fitness does the source give for AVCQVIGMYDYTAQNDDELAFNKGQIINVLNKETPDWWKGEVNGQVGLFPSNYVKLTT [D34T] here?
A: -0.383 ± 0.17

Q: With AVCQVIGMYDYTAQNDDELAFNKGQIINVLNKEFPDWWKGEVNGQVGLFPSNYVKLTT [D34F] as the variant, how does the abundance fitness read?
A: -0.554 ± 0.19

Q: With AVCQVIGMYDYTAQNDDELAFNKGQIINVLNKESPDWWKGEVNGQVGLFPSNYVKLTT [D34S] as the variant, how does the abundance fitness read?
A: -0.221 ± 0.098

Q: With AVCQVIGMYDYTAQNDDELAFNKGQIINVLNKVDPDWWKGEVNGQVGLFPSNYVKLTT [E33V] as the variant, how does the abundance fitness read?
A: -0.324 ± 0.14

Q: For AVCQVIGMYDYTAQNDDELAFNKGQIINVLNKRDPDWWKGEVNGQVGLFPSNYVKLTT [E33R], which abundance fitness is on record?
A: -0.367 ± 0.11

Q: For AVCQVIGMYDYTAQNDDELAFNKGQIINVLNKSDPDWWKGEVNGQVGLFPSNYVKLTT [E33S], which abundance fitness is on record?
A: -0.101 ± 0.11

Q: Which abundance fitness does the source give for AVCQVIGMYDYTAQNDDELAFNKGQIINVLNKTDPDWWKGEVNGQVGLFPSNYVKLTT [E33T] here?
A: -0.075 ± 0.15

Q: Which abundance fitness does the source give for AVCQVIGMYDYTAQNDDELAFNKGQIINVLNKQDPDWWKGEVNGQVGLFPSNYVKLTT [E33Q] here?
A: -0.077 ± 0.24

Q: Which abundance fitness does the source give for AVCQVIGMYDYTAQNDDELAFNKGQIINVLNKPDPDWWKGEVNGQVGLFPSNYVKLTT [E33P] here?
A: -0.6 ± 0.23

Q: With AVCQVIGMYDYTAQNDDELAFNKGQIINVLNKWDPDWWKGEVNGQVGLFPSNYVKLTT [E33W] as the variant, how does the abundance fitness read?
A: -0.987 ± 0.2

Q: With AVCQVIGMYDYTAQNDDELAFNKGQIINVLNKEDPKWWKGEVNGQVGLFPSNYVKLTT [D36K] as the variant, how does the abundance fitness read?
A: 0.071 ± 0.13

Q: With AVCQVIGMYDYTAQNDDELAFNKGQIINVLNKEDPTWWKGEVNGQVGLFPSNYVKLTT [D36T] as the variant, how does the abundance fitness read?
A: -0.143 ± 0.12

Q: For AVCQVIGMYDYTAQNDDELAFNKGQIINVLNKEDPSWWKGEVNGQVGLFPSNYVKLTT [D36S], which abundance fitness is on record?
A: -0.131 ± 0.096

Q: Which abundance fitness does the source give for AVCQVIGMYDYTAQNDDELAFNKGQIINVLNKEDPGWWKGEVNGQVGLFPSNYVKLTT [D36G] here?
A: -0.279 ± 0.087

Q: For AVCQVIGMYDYTAQNDDELAFNKGQIINVLNKEDPLWWKGEVNGQVGLFPSNYVKLTT [D36L], which abundance fitness is on record?
A: -0.072 ± 0.094

Q: With AVCQVIGMYDYTAQNDDELAFNKGQIINVLNKEDPVWWKGEVNGQVGLFPSNYVKLTT [D36V] as the variant, how does the abundance fitness read?
A: -0.069 ± 0.099

Q: Which abundance fitness does the source give for AVCQVIGMYDYTAQNDDELAFNKGQIINVLNKEDPQWWKGEVNGQVGLFPSNYVKLTT [D36Q] here?
A: -0.218 ± 0.16

Q: For AVCQVIGMYDYTAQNDDELAFNKGQIINVLNKEDPHWWKGEVNGQVGLFPSNYVKLTT [D36H], which abundance fitness is on record?
A: -0.08 ± 0.15

Q: With AVCQVIGMYDYTAQNDDELAFNKGQIINVLNKEDPEWWKGEVNGQVGLFPSNYVKLTT [D36E] as the variant, how does the abundance fitness read?
A: -0.196 ± 0.12

Q: With AVCQVIGMYDYTAQNDDELAFNKGQIINVLNKEDPIWWKGEVNGQVGLFPSNYVKLTT [D36I] as the variant, how does the abundance fitness read?
A: -0.138 ± 0.22

Q: Which abundance fitness does the source give for AVCQVIGMYDYTAQNDDELAFNKGQIINVLNKEDPCWWKGEVNGQVGLFPSNYVKLTT [D36C] here?
A: -0.117 ± 0.14

Q: With AVCQVIGMYDYTAQNDDELAFNKGQIINVLNKEDPFWWKGEVNGQVGLFPSNYVKLTT [D36F] as the variant, how does the abundance fitness read?
A: -0.175 ± 0.14

Q: With AVCQVIGMYDYTAQNDDELAFNKGQIINVLNKEDPYWWKGEVNGQVGLFPSNYVKLTT [D36Y] as the variant, how does the abundance fitness read?
A: 0.01 ± 0.24

Q: Which abundance fitness does the source give for AVCQVIGMYDYTAQNDDELAFNKGQIINVLNKEDPAWWKGEVNGQVGLFPSNYVKLTT [D36A] here?
A: -0.004 ± 0.1

Q: With AVCQVIGMYDYTAQNDDELAFNKGQIINVLNKEDPRWWKGEVNGQVGLFPSNYVKLTT [D36R] as the variant, how does the abundance fitness read?
A: -0.009 ± 0.084

Q: Which abundance fitness does the source give for AVCQVIGMYDYTAQNDDELAFNKGQIINVLNKEDPMWWKGEVNGQVGLFPSNYVKLTT [D36M] here?
A: -0.018 ± 0.13

Q: With AVCQVIGMYDYTAQNDDELAFNKGQIINVLNKEDPPWWKGEVNGQVGLFPSNYVKLTT [D36P] as the variant, how does the abundance fitness read?
A: -0.53 ± 0.14

Q: For AVCQVIGMYDYTAQNDDELAFNKGQIINVLNKEDPNWWKGEVNGQVGLFPSNYVKLTT [D36N], which abundance fitness is on record?
A: -0.203 ± 0.15
